Data on 167 variants can be found in the Human Domainome abundance scans (Beltran et al. 2025).

B1: Telomeric repeat-binding factor 2, residues 489 to 542; numbered along this chain, Q15554 (parent)
chain: KQKWTVEESEWVKAGVQKYGEGNWAAISKNYPFVNRTAVMIKDRWRTMKRLGMN
B2: Endonuclease CUE2, residues 9 to 47; numbered along this chain, P36075 (parent)
chain: HESKLSILMDMFPAISKSKLQVHLLENNNDLDLTIGLLL

± gives the uncertainty stated by the source.

One data set covers variants of B1. Kind of data set: abundance fitness (aPCA) (normalised: wild type 0, dead -1); higher = more abundant; growth selection in yeast, the domain comes from the species named. Conditions: Homo sapiens.
In the case of N35Q, the abundance fitness stood at 0.215 ± 0.12.

Regarding N35T, the abundance fitness is -0.476 ± 0.082.

On to N35I, for which the abundance fitness is -0.758 ± 0.14.

On to N35R, for which the abundance fitness is -0.317 ± 0.083.

For N35G, the abundance fitness was -0.259 ± 0.057.

As for F33M, the abundance fitness is -0.652 ± 0.08.

On to F33L, for which the abundance fitness is -0.65 ± 0.09.

F33D: the abundance fitness was -1.02 ± 0.35.

As to F33N, the abundance fitness was -0.499 ± 0.43.

As for Y31D, the abundance fitness is -0.499 ± 0.28.

Take Y31F: the abundance fitness was -0.417 ± 0.26.

Take Y31V: the abundance fitness is -0.496 ± 0.11.

For the variant Y31H, the abundance fitness was -0.539 ± 0.094.

With Y31K, the abundance fitness was -0.535 ± 0.13.

Consider V12K, for which the abundance fitness is -0.626 ± 0.25.

Turning to V12P, the abundance fitness was -0.325 ± 0.2.

Regarding V12A, the abundance fitness was -0.423 ± 0.075.

In the case of V12E, the abundance fitness is -0.262 ± 0.089.

On to V12M, for which the abundance fitness was -0.132 ± 0.23.

On to V12T, for which the abundance fitness was -0.144 ± 0.15.

Consider V12N, for which the abundance fitness was -0.844 ± 0.32.

For the variant E21D, the abundance fitness was -0.26 ± 0.14.

Turning to E21H, the abundance fitness was -0.598 ± 0.32.

In the case of E21C, the abundance fitness is -0.432 ± 0.12.

Regarding G15C, the abundance fitness was -0.652 ± 0.17.

On to G15I, for which the abundance fitness is 0.246 ± 0.38.

With G15H, the abundance fitness is -0.946 ± 0.42.

With G15D, the abundance fitness was -0.772 ± 0.3.

On to G15V, for which the abundance fitness was -0.587 ± 0.091.

As for G15A, the abundance fitness was -0.761 ± 0.053.

Take K42D: the abundance fitness was -0.457 ± 0.23.

For K42N, the abundance fitness was -0.417 ± 0.18.

Regarding K42T, the abundance fitness was -0.614 ± 0.18.

In the case of K42P, the abundance fitness was -0.961 ± 0.19.

With K42Y, the abundance fitness was -0.448 ± 0.2.

For the variant K42L, the abundance fitness was -0.571 ± 0.071.

On to K42A, for which the abundance fitness is -0.141 ± 0.065.

Turning to K42E, the abundance fitness is -0.016 ± 0.081.

In the case of K42H, the abundance fitness was -0.881 ± 0.42.

Consider K18T, for which the abundance fitness was -0.035 ± 0.12.

Regarding K18P, the abundance fitness was -0.686 ± 0.11.

K18L: the abundance fitness is -0.342 ± 0.07.

For K18R, the abundance fitness worked out at 0.076 ± 0.067.

As to K18A, the abundance fitness is -0.368 ± 0.13.

Take K18S: the abundance fitness is -0.736 ± 0.27.

E10G: the abundance fitness was -0.38 ± 0.095.

With E10Q, the abundance fitness is -0.177 ± 0.13.

As to E10T, the abundance fitness is -0.102 ± 0.097.

On to E10M, for which the abundance fitness was -0.055 ± 0.13.

In the case of K1M, the abundance fitness is -0.501 ± 0.15.

On to K1R, for which the abundance fitness was -0.631 ± 0.16.

Consider K49A, for which the abundance fitness was -0.29 ± 0.046.

Take K49M: the abundance fitness was -0.657 ± 0.19.

On to K49H, for which the abundance fitness was -0.462 ± 0.23.

On to K49L, for which the abundance fitness is -0.302 ± 0.045.

As to K49G, the abundance fitness is -0.568 ± 0.073.

In the case of K49R, the abundance fitness was -0.358 ± 0.043.

With E8K, the abundance fitness was -1 ± 0.36.

In the case of E8R, the abundance fitness was -0.638 ± 0.091.

As for A14G, the abundance fitness is -0.236 ± 0.053.

With A14R, the abundance fitness was -0.002 ± 0.09.

With A14W, the abundance fitness was -0.382 ± 0.18.

In the case of A14D, the abundance fitness is -0.041 ± 0.087.

As to A14E, the abundance fitness is -0.116 ± 0.14.

On to A14L, for which the abundance fitness was -0.051 ± 0.061.

T47C: the abundance fitness was -0.083 ± 0.11.

Take T47K: the abundance fitness was -0.05 ± 0.058.

As for T47E, the abundance fitness is 0.177 ± 0.071.

Turning to T47R, the abundance fitness was -0.204 ± 0.048.

P32K: the abundance fitness was -0.316 ± 0.039.

For the variant P32N, the abundance fitness was -0.294 ± 0.052.

With P32S, the abundance fitness is -0.361 ± 0.037.

Turning to P32E, the abundance fitness was -0.611 ± 0.045.

For the variant P32C, the abundance fitness is -0.593 ± 0.053.

As to P32R, the abundance fitness is -0.4 ± 0.042.

In the case of P32A, the abundance fitness is -0.327 ± 0.038.

On to W24L, for which the abundance fitness is -0.858 ± 0.18.

As for W24G, the abundance fitness was -0.596 ± 0.14.

Consider W24Q, for which the abundance fitness was -0.442 ± 0.34.

For W24C, the abundance fitness is -0.982 ± 0.34.

On to S9N, for which the abundance fitness was 0.107 ± 0.052.

Turning to S9V, the abundance fitness was -0.483 ± 0.11.

As to S9A, the abundance fitness is -0.219 ± 0.078.

Turning to S9W, the abundance fitness is -0.335 ± 0.082.

On to S9I, for which the abundance fitness is -0.021 ± 0.091.

As for S9M, the abundance fitness stood at 0.39 ± 0.11.

Regarding S28G, the abundance fitness was -0.171 ± 0.085.

As to S28A, the abundance fitness stood at 0.142 ± 0.097.

For S28C, the abundance fitness was -0.17 ± 0.12.

For S28N, the abundance fitness was 0.163 ± 0.14.

S28H: the abundance fitness is 0.101 ± 0.23.

In the case of S28F, the abundance fitness is -0.098 ± 0.11.

With G20V, the abundance fitness was -0.918 ± 0.25.

Consider G20Y, for which the abundance fitness is -0.781 ± 0.28.

In the case of G20P, the abundance fitness was -0.813 ± 0.37.

On to G20I, for which the abundance fitness was -0.621 ± 0.45.

In the case of G20W, the abundance fitness was -0.541 ± 0.089.

On to K3I, for which the abundance fitness was -0.278 ± 0.33.

As to K3H, the abundance fitness was -0.519 ± 0.2.

In the case of K3N, the abundance fitness was -0.499 ± 0.45.

On to K3A, for which the abundance fitness is -0.098 ± 0.044.

As to K3C, the abundance fitness was -0.394 ± 0.14.

R36G: the abundance fitness was -0.816 ± 0.051.

Regarding R36Y, the abundance fitness is -0.614 ± 0.25.

As to R36K, the abundance fitness came out at 0.228 ± 0.098.

R36C: the abundance fitness was -0.495 ± 0.12.

Take R36H: the abundance fitness is -0.649 ± 0.28.

Consider R36S, for which the abundance fitness was -0.654 ± 0.086.

For the variant M53D, the abundance fitness worked out at 0.349 ± 0.093.

As to M53Q, the abundance fitness is -0.099 ± 0.099.

For M53S, the abundance fitness was -0.145 ± 0.1.

As for M53V, the abundance fitness was -0.184 ± 0.07.

For the variant M53T, the abundance fitness was -0.249 ± 0.16.

As to M53W, the abundance fitness is -0.329 ± 0.088.

With M53E, the abundance fitness amounted to 0.01 ± 0.095.

In the case of A38F, the abundance fitness is -0.334 ± 0.16.

With A38V, the abundance fitness was -0.123 ± 0.047.

Regarding A38D, the abundance fitness was -0.276 ± 0.08.

With A38E, the abundance fitness was -0.126 ± 0.092.

With A38P, the abundance fitness stood at 0.014 ± 0.054.

As for A38T, the abundance fitness was determined as 0.188 ± 0.18.

On to A38G, for which the abundance fitness is -0.371 ± 0.044.

For the variant A38W, the abundance fitness amounted to 0.013 ± 0.068.

On to E7H, for which the abundance fitness was -0.377 ± 0.28.

For the variant E7Y, the abundance fitness is -0.329 ± 0.07.

Consider E7D, for which the abundance fitness is -0.141 ± 0.09.

As to E7G, the abundance fitness was -0.834 ± 0.11.

For the variant E7T, the abundance fitness is -0.196 ± 0.091.

Take E7N: the abundance fitness is -0.721 ± 0.33.

On to E7C, for which the abundance fitness is -0.607 ± 0.2.

Regarding E7R, the abundance fitness is -0.221 ± 0.08.

Regarding E7I, the abundance fitness was -0.427 ± 0.2.

For the variant E7S, the abundance fitness is -0.67 ± 0.13.

With D43I, the abundance fitness was -0.866 ± 0.24.

As to D43R, the abundance fitness was -0.072 ± 0.074.

Consider D43F, for which the abundance fitness was -0.68 ± 0.17.

As to D43G, the abundance fitness is -0.672 ± 0.097.

Consider V34G, for which the abundance fitness was -0.34 ± 0.043.

As for V34Y, the abundance fitness is -0.331 ± 0.17.

On to V34S, for which the abundance fitness was -0.172 ± 0.04.

As to V34D, the abundance fitness is -0.711 ± 0.16.

Take R44V: the abundance fitness is -0.325 ± 0.055.

For the variant R44G, the abundance fitness is -0.466 ± 0.058.

As for R44P, the abundance fitness is -0.863 ± 0.08.

With R44N, the abundance fitness is -0.662 ± 0.067.

For R44W, the abundance fitness was -0.397 ± 0.084.

As to R44F, the abundance fitness is -0.185 ± 0.048.

With R44E, the abundance fitness was -0.59 ± 0.093.

Take L51H: the abundance fitness amounted to 0.031 ± 0.4.

Turning to L51M, the abundance fitness was -0.051 ± 0.065.

Turning to L51F, the abundance fitness is -0.355 ± 0.16.

Take L51D: the abundance fitness is -0.259 ± 0.13.

Turning to L51Y, the abundance fitness is -0.063 ± 0.12.

L51I: the abundance fitness was -0.241 ± 0.13.

Another data set covers variants of B2. The description is as above. Conditions: Saccharomyces cerevisiae (strain ATCC 204508 / S288c).
As to H1A, the abundance fitness amounted to 0.264 ± 0.093.

As to H1L, the abundance fitness was determined as 0.377 ± 0.045.

For the variant H1D, the abundance fitness worked out at 0.064 ± 0.36.

Regarding H1E, the abundance fitness was 0.361 ± 0.043.

For H1S, the abundance fitness came to 0.174 ± 0.06.

Regarding H1T, the abundance fitness was 0.467 ± 0.062.

Regarding H1G, the abundance fitness was 0.237 ± 0.037.

Regarding H1V, the abundance fitness turned out to be 0.28 ± 0.045.

Turning to H1C, the abundance fitness is 0.351 ± 0.12.

With H1W, the abundance fitness came out at 0.05 ± 0.039.

As for H1K, the abundance fitness was determined as 0.312 ± 0.062.

Consider H1M, for which the abundance fitness amounted to 0.255 ± 0.09.

On to H1R, for which the abundance fitness came to 0.284 ± 0.035.
